From the RNAGym collection of RNA variant scans (doi:10.1073/pnas.2313332121)

B1: TPR t1 (parent)
chain: GACCAAUCUGCCCUCAGAGCUCGAGAACAUCUUCGGAUGCAGAGGAGGCAGGCUUCGGUGGCGCGAUAGCGCCAACGUCCUCAACCUCCAAUGCAUCCCACCACAUGAUGAUGCCUGAAGAGCCUUGGUUUUUUG

Variants of: B1
Assay: polymerase ribozyme fitness, log enrichment relative to wild type (log ratio); higher = more active; in vitro selection for triplet polymerase activity
Procedure, shortened: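 Each subunit of a heterodimeric triplet polymerase ribozyme was represented by a PCR-built, transcribed mutant library that underwent triplicate single-round in vitro selection with frozen incubation at −7 °C. Extended constructs were recovered by gel excision, streptavidin-bead capture and RT-PCR, and Illumina sequencing of input and output libraries kept genotypes with ≥10 input reads and ≥1 read per output. Fitness is the logarithm of genotype enrichment relative to wild-type enrichment, from inverse-variance-weighted replicate averages, with a logarithm base of 2.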

Variant | polymerase ribozyme fitness (log ratio)
C64G U87A C124A | -5.74
C62U C115G | -2.51
C62U C115A | 0.00277
C64A G117A | -6.29
G63C G93A U112G | -0.619
G63A A105U | -3.59
C62U G128U | -1.78
C64G G113A | -6.17
C62U U92C U116C A119G | 0.218
G63C G113C | -3.38
G63A A105U U112A | -3.65
G63C A91U | -2.7
G63A C86A | -2.33
G63A C86U | -0.411
C64A A83G U92G C99U C104A | -8.04
C62U C97G | -4.18
C62U C97U | -0.489
G63C C86U G120A | -0.703
C64U A84C | 0.992
C64U A84U | -0.154
C62U C99U C101U | -3.02
G63C A105U | -2.44
G63C C101U U130G | -0.981
G63U U78C | -2.92

Variant | polymerase ribozyme fitness (log ratio)
G63U G120A U129G | -2.16
G63C C76A A91C A100C C115G C123A | -4.91
C62U U87A U92A G120C | -3.58
G63U C70G C89A A90U A100U A121G | -2.02
C62U G113U | -3.01
C62U G113C | -2.79
G63A A91G | -2.33
G63A A91C | -4.17
G63A C82U C85U A90U C98U A118U | -5.21
G63A G120C | 0.337
G63U C82A | -0.955
G63U C82U | -1.76
G63U U133A | -2.29
G63A C88A | -1.42
G63U G77U U109A G135U | -7.04
G63C C80G | -6.96
G63C C80A | -3.71
G63A C79G U109G | -7.2
C64A A84C | -5.15
G63U U131A | -0.516
C64U A90U | -0.99
G63A U131A | -1.11
G63U U130G | -0.881
G63U U130A | -1.46

Variant | polymerase ribozyme fitness (log ratio)
C64U A90U A100U | -3.1
G63U C80A | -4.88
C64A G110A G120A | -7.98
G63U A100C | -2.79
G63A G93U | -2.58
G63A G77U A105G | -4.78
C64G G65U C79G C104A C115A C123G | -6.93
C62U G107A | -4.72
C62U G107U | -4.02
G63A U116C C123U | -4.18
G63A C80U | -1.54
G63C G117U | -2.64
G63A C115A | -1.19
C62U G120C | 0.344
G63A C104A | -2.41
G63U C64A | -6.48
G63U C64U | -6.21
G63U C64G | -4.92
G63A U129A | -1.64
G63U U87G G117U C123A | -3.97
G63A C89A U131G | -3.23
G63C A84G C94A | -3.04
G63C C94A U112A U116A | -2.14
G63U C86U U112A | -0.646

Variant | polymerase ribozyme fitness (log ratio)
C62U G117C | -3.31
G63U U125A | -1.51
G63A U130G | -0.913
G63A U130C | -0.399
C64G C88U | -5.96
G63C C97U | -0.711
G63A A84C | -0.832
G63U C94A A108G | -5.53
C64A G120A | -5.35
C64A G120U | -6.12
G63C C85G U87C | -2.82
C62U U87A | 0.539
G63U C101U | -2.57
G63C A105G G120C | -2.96
C64U A91C G93A G120A U133G | -1.92
G63A U87C | -0.482
G63A G93C G113U G135A | -4.37
G63C U87A | -1.59
G63C U87G | -0.832
G63C U87C | -0.645
C62U C85U U87A U92C C114U G117A | -6.6
G63A U96C | -1.54
G63A U96A | -1.81
G63C C123A | 0.07

Variant | polymerase ribozyme fitness (log ratio)
G63C C123G | 0.737
G63C C123U | 0.859
C64G G120C | -4.47
G63U C99U U106A | -3.55
G63U C89G | -1.88
G63C C79G C123U C124G | 0.0911
G63C A111U G122A | -5.6
G63U C85A | -3.39
G63U C73A C97U | -4.28
C62U U78C U96G U129C | -0.314
G63U G93U C123U | -1.46
G63C C72G | -5.46
C64G C114U | -6.35
C64G C114G | -6.51
G63U A68C A121G | -5.43
G63U U78C C123U | -1.9
G63C U81C A90U | -3.06
C64A G120C U125G | -7.86
G63C U129G | -1.93
G63C U129A | -2.09
G63C U129C | -2
G63A G107U | -5.22
G63A U78C C123A | -0.604
G63A C101U | -0.216

Variant | polymerase ribozyme fitness (log ratio)
C62U C94A | -1.69
G63C C85G C102A | -2.51
C62U U78C C101G A118G U133A | -2.5
G63U C82A U126A | -3.13
C64U A66G C86U A95U C99A G117C | -7.47
G63C G107U | -5.92
G63U C101U C115U C124U | -3.55
G63A G77U C79U A100C | -2.62
G63A C73A | -1.93
G63A G69C | -6.1
G63A U92A | -4.6
C64A U112C | -4.53
G63U C72U C82G G113C | -4.22
G63U A83G | -1.76
C64A G65A C97U G120A | -5.01
G63U G120U U126A | -1.69
C64U A83U A95G G127C | -2.12
G63U G77A | -3.45
G63A U133G | -1.23
G63C U116G | -2.02
G63A A118U | 0.468
G63C G93A G122A | -1.99
G63C U125C | -3.57
G63A A100U | -1.77

Variant | polymerase ribozyme fitness (log ratio)
C62U U81C C94U U96C C114A | -2.82
G63C U81C | -0.941
G63C C82G A121C G128C | -1.24
G63C A111G U125C | -1.75
G63C C73U | -0.69
G63A C82U C94U A95C C115U U132C | -2.7
C64G A66G G69C C82A A105U | -3.01
G63C C80U A118C G120A | -3.34
G63A A119G | -0.0262
G63A C88U G120A G122U | -0.851
C62U G69A C97G G110C | -6.75
G63C A91G G113A | -2.9
G63C G135U | -1.25
C64U A84U U87A | -1.17
G63U C79A G110U | -5.14
G63U C89U G93A G120A | -1.65
G63C C72A C79G | -5.56
C62U C86G | -0.606
G63A U78A A119U | -1.76
G63A G127C | -1.62
G63U C124G | 0.287
G63U C124A | 0.583
C62U G122U | 0.2
